According to article PMC8053128, “Structures of Neisseria gonorrhoeae MtrR-operator complexes reveal molecular mechanisms of DNA recognition and antibiotic resistance-conferring clinical mutations”:

Tests used:
MtrR R44A = MtrR R44A (Neisseria gonorrhoeae, UniProt P39897 1-210, R44A); experiment: fluorescence polarization; FP: 20 mM Tris-HCl pH 7.5, 100 mM NaCl, 2.5% glycerol, 1 mM TCEP, 1 ug BSA, 1 ug poly(dI-dC), 1 nM 5'-fluorescein DNA; temperature not stated; MtrR concentration as dimer; conditions: protein: recombinant; tags: N-terminal His6 removed by TEV (pMCSG7); chain copies: 2; label: 5'-fluorescein
MtrR A39T = MtrR A39T (Neisseria gonorrhoeae, UniProt P39897 1-210, A39T); experiment: as above; conditions: protein: recombinant; tags: N-terminal His6 removed by TEV (pMCSG7); chain copies: 2; label: 5'-fluorescein
MtrR G45A = MtrR G45A (Neisseria gonorrhoeae, UniProt P39897 1-210, G45A); experiment: as above; conditions: protein: recombinant; tags: N-terminal His6 removed by TEV (pMCSG7); chain copies: 2; label: 5'-fluorescein
MtrR G45D = MtrR G45D (Neisseria gonorrhoeae, UniProt P39897 1-210, G45D); experiment: as above; conditions: protein: recombinant; tags: N-terminal His6 removed by TEV (pMCSG7); chain copies: 2; label: 5'-fluorescein
MtrR T43A = MtrR T43A (Neisseria gonorrhoeae, UniProt P39897 1-210, T43A); experiment: as above; conditions: protein: recombinant; tags: N-terminal His6 removed by TEV (pMCSG7); chain copies: 2; label: 5'-fluorescein
MtrR WT [1] = target: T1, MtrR WT (Neisseria gonorrhoeae, UniProt P39897 1-210); experiment: fluorescence polarization; nonspecific binding only; FP: 20 mM Tris-HCl pH 7.5, 100 mM NaCl, 2.5% glycerol, 1 mM TCEP, 1 ug BSA, 1 ug poly(dI-dC), 1 nM 5'-fluorescein DNA; temperature not stated; MtrR concentration as dimer; conditions: protein: recombinant; tags: N-terminal His6 removed by TEV (pMCSG7); chain copies: 2; label: 5'-fluorescein
MtrR WT [2] = target: T1, MtrR WT; experiment: fluorescence polarization; FP: 20 mM Tris-HCl pH 7.5, 100 mM NaCl, 2.5% glycerol, 1 mM TCEP, 1 ug BSA, 1 ug poly(dI-dC), 1 nM 5'-fluorescein DNA; temperature not stated; MtrR concentration as dimer; conditions: protein: recombinant; tags: N-terminal His6 removed by TEV (pMCSG7); chain copies: 2; label: 5'-fluorescein
MtrR H105Y = MtrR H105Y (Neisseria gonorrhoeae, UniProt P39897 1-210, H105Y); experiment: as above; conditions: protein: recombinant; tags: N-terminal His6 removed by TEV (pMCSG7); chain copies: 2; label: 5'-fluorescein
Semet-MtrR WT = Semet-MtrR WT (Neisseria gonorrhoeae, UniProt P39897 1-210); experiment: X-ray crystallography; 2.6 A; 200 mM calcium acetate; FP: 20 mM Tris-HCl pH 7.5, 100 mM NaCl, 2.5% glycerol, 1 mM TCEP, 1 ug BSA, 1 ug poly(dI-dC), 1 nM 5'-fluorescein DNA; temperature not stated; MtrR concentration as dimer; conditions: protein: recombinant; tags: N-terminal His6 removed by TEV (pMCSG7); chain copies: 2
MtrR W49F = MtrR W49F (Neisseria gonorrhoeae, UniProt P39897 1-210, W49F); experiment: fluorescence polarization; FP: 20 mM Tris-HCl pH 7.5, 100 mM NaCl, 2.5% glycerol, 1 mM TCEP, 1 ug BSA, 1 ug poly(dI-dC), 1 nM 5'-fluorescein DNA; temperature not stated; MtrR concentration as dimer; conditions: protein: recombinant; tags: N-terminal His6 removed by TEV (pMCSG7); chain copies: 2; label: 5'-fluorescein
MtrR T43S = MtrR T43S (Neisseria gonorrhoeae, UniProt P39897 1-210, T43S); experiment: as above; conditions: protein: recombinant; tags: N-terminal His6 removed by TEV (pMCSG7); chain copies: 2; label: 5'-fluorescein
MtrR T11A = MtrR T11A (Neisseria gonorrhoeae, UniProt P39897 1-210, T11A); experiment: as above; conditions: protein: recombinant; tags: N-terminal His6 removed by TEV (pMCSG7); chain copies: 2; label: 5'-fluorescein
MtrR H50A = MtrR H50A (Neisseria gonorrhoeae, UniProt P39897 1-210, H50A); experiment: as above; conditions: protein: recombinant; tags: N-terminal His6 removed by TEV (pMCSG7); chain copies: 2; label: 5'-fluorescein
MtrR D79N = MtrR D79N (Neisseria gonorrhoeae, UniProt P39897 1-210, D79N); experiment: as above; conditions: protein: recombinant; tags: N-terminal His6 removed by TEV (pMCSG7); chain copies: 2; label: 5'-fluorescein

| Binder | binding result (MtrR R44A) | binding result (MtrR G45D) | binding result (MtrR T43A) | Kd (MtrR WT [2]) [nM] | Kd (MtrR H105Y) [nM] | further results |
| --- | --- | --- | --- | --- | --- | --- |
| emrAB 22mer (dsDNA) DNA 1: AGTCGGCTATATCATTGCTGTC DNA 2: GACAGCAATGATATAGCCGACT | no binding | no binding | no binding |  |  | binding result (MtrR A39T): no binding; binding result (MtrR G45A): no binding; binding result (MtrR WT [1]): no binding |
| mtrCDE 27mer (dsDNA) DNA 1: TTTTTATCCGTGCAATCGTGTATGTAT DNA 2: ATACATACACGATTGCACGGATAAAAA |  |  |  | 43 ± 4 |  |  |
| GpY 27mer (dsDNA) DNA 1: TACATAGCTGGTGTTATGTAAACGGCC DNA 2: GGCCGTTTACATAACACCAGCTATGTA | no binding | no binding | no binding |  | 860 ± 80 | binding result (MtrR A39T): no binding; binding result (MtrR G45A): no binding; binding result (MtrR WT [1]): no binding |
| rpoH 21mer (crystal) (dsDNA) DNA 1: TACATACGTGGTTGTATGTAA DNA 2: TTACATACAACCACGTATGTA |  |  |  |  |  | binding result (Semet-MtrR WT): binds |
| rpoH 27mer (dsDNA) DNA 1: TACATACGTGGTTGTATGTAAACGGCC DNA 2: GGCCGTTTACATACAACCACGTATGTA | no binding | no binding | no binding | 8 ± 1 | 340 ± 57 | Kd (MtrR A39T): 31 ± 3 nM; Kd (MtrR W49F): 53 ± 3 nM; Kd (MtrR T43S): 860 ± 180 nM; Kd (MtrR T11A): 441 ± 37 nM; Kd (MtrR H50A): 376 ± 35 nM |
| ApY 27mer (dsDNA) DNA 1: TACAATCGTGGTTGATTGTAAACGGCC DNA 2: GGCCGTTTACAATCAACCACGATTGTA |  |  |  | 293 ± 24 |  |  |
| mtrCDE 21mer (dsDNA) DNA 1: TATCCGTGCAATCGTGTATGT DNA 2: ACATACACGATTGCACGGATA | no binding | no binding | no binding | 50 ± 4 | 640 ± 130 | binding result (MtrR D79N): no binding; Kd (MtrR A39T): 170 ± 11 nM; Kd (MtrR W49F): 380 ± 44 nM; Kd (MtrR T11A): 1080 ± 93 nM; Kd (MtrR H50A): 990 ± 100 nM |
